Series [1] relates to T1, CC(=O)Oc1ccc([N+](=O)[O-])cc1.
T1 construct: ORF 258 aa, 26,604 Da, no signal peptide; secreted from Pichia pastoris X33 via pPICZalphaA with 6xHis tag (predicted 29,117 Da, ~30 kDa SDS-PAGE), Ni-Sepharose purified, not N-glycosylated
Nature of the series: purified protein. The class given is biochemical, Actinomadura sp. S14. To be noted: 50 mM Tris-HCl pH 8.0, 50 °C, 0.4% Triton X-100, 0.1% gum arabic.

Series [2] deals with T2, CCCC(=O)Oc1ccc([N+](=O)[O-])cc1.
T2 construct: ORF 258 aa, 26,604 Da, no signal peptide; secreted from Pichia pastoris X33 via pPICZalphaA with 6xHis tag (predicted 29,117 Da, ~30 kDa SDS-PAGE), Ni-Sepharose purified, not N-glycosylated
Nature of the series: purified protein. The settings on record: 50 mM Tris-HCl pH 8.0, 50 °C, 0.4% Triton X-100, 0.1% gum arabic. The class given is biochemical, Actinomadura sp. S14.

By Km is commonly meant the substrate concentration at which the rate is half of its maximum. Broadly, the Vmax is the top rate of the reaction or transport when substrate is in excess. As usually defined, the kcat is the number of substrate molecules converted per active site and unit of time at saturation. Broadly, the kcat/Km is the second-order rate constant that governs catalysis at low substrate concentration.

Take HydS14 (Actinomadura sp. S14): in series [1], the Km is 0.36 ± 0.01 mM, the Vmax was 35.3 µmol/min/mg, the kcat is 2.37 ± 0.06 s⁻¹ and the kcat/Km came to 6590 ± 40 M⁻¹ s⁻¹. Besides, in series [2], the Km is on record as 0.21 ± 0.02 mM, the Vmax is 37.1 µmol/min/mg, the kcat came to 2.47 ± 0.07 s⁻¹ and the kcat/Km was determined as 11700 ± 780 M⁻¹ s⁻¹.
